Target: human TNFR2 on the cell membrane (human) (UniProt P20333)
Test: flow cytometry on human PBMC, CD3+ T cells

human TNFR2 on the cell membrane (human), sequence (P20333 23-461): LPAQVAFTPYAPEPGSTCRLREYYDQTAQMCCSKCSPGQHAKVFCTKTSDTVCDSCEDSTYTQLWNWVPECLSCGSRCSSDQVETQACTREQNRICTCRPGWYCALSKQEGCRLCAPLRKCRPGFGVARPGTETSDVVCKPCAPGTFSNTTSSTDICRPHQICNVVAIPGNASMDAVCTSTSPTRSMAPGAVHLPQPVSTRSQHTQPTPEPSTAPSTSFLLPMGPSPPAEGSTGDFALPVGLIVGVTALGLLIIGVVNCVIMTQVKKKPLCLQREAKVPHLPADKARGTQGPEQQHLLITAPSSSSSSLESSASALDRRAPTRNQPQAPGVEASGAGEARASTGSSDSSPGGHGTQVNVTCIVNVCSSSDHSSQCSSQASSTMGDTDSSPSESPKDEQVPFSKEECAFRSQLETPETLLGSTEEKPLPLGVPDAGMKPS

percent of cells in the upper right quadrant (Q1-UR, CD3+ and anti-human IgG Fc+): 5.48%
Substance: Isotype Ctrl (antibody)

— patent US20240392024A1
